{"source": "patent US20200262877A1", "about": "“ION CHANNEL-BINDING PEPTIDES AND METHODS OF USE THEREOF” (priority 2017, published 2020)", "key": {"5HT3a": {"target": "T1, 5HT3a (Homo sapiens, UniProt P46098)", "T1 construct": "host or cells: HEK293 or CHO", "T1 sequence (P46098 whole entry, looked up)": "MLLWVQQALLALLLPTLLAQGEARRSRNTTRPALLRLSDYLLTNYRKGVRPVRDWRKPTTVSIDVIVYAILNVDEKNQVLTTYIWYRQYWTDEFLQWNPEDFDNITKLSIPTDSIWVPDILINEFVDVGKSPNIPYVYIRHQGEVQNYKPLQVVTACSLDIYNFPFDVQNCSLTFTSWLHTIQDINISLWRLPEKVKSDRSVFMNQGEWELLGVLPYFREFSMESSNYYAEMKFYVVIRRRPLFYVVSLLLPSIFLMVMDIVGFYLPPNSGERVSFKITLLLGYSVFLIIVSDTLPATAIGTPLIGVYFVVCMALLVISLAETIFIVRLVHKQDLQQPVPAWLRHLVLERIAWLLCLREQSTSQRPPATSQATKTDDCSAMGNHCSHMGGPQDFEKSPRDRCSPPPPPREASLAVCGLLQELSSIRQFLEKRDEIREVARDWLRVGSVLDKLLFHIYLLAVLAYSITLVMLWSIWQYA", "assay": "Ion channel panel (IonWorks Barracuda): 5HT3a", "format": "cell-based", "method_in_brief": "(§1)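 Transfected HEK293 or CHO cells were exposed for at least 5 min to peptides at 200 nM and 20 μM final, tested in duplicate, in HEPES-buffered physiological saline. Activation was taken as peptide-plus-agonist current over control current ×100, and inhibition as 1 minus that ratio ×100. Each channel's control was its own reference compound.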"}, "α3β4": {"target": "T2, α3β4 (Homo sapiens, UniProt P30926+P32297)", "T2 construct": "host or cells: HEK293 or CHO", "T2 sequence (P30926 22-498)": "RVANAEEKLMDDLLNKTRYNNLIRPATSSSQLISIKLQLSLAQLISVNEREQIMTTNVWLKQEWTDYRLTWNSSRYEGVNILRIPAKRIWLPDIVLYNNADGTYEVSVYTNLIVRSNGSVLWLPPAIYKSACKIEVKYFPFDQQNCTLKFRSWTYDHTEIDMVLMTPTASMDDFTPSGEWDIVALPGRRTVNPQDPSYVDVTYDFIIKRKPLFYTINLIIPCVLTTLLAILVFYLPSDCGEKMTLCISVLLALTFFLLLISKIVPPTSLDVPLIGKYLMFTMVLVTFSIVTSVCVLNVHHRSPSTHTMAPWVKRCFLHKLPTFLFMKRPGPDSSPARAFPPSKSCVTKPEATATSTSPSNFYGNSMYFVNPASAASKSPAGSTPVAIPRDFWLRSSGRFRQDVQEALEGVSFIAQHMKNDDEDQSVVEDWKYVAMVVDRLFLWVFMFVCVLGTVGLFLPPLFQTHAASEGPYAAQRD", "T2 sequence (P32297 32-505)": "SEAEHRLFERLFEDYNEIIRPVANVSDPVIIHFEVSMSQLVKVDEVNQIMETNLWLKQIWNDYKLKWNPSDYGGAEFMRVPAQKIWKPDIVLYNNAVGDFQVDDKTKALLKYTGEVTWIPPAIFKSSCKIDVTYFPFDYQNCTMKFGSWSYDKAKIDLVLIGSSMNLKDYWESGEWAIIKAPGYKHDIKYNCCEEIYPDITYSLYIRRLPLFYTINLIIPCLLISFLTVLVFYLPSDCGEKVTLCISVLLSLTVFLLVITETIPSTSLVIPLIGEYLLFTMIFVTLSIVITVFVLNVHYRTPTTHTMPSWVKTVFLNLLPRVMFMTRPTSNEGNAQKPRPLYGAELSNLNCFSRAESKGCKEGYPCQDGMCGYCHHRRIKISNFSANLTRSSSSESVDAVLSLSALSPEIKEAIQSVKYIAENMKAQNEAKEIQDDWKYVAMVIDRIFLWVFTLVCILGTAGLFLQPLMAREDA", "assay": "Ion channel panel (IonWorks Barracuda): α3β4", "format": "cell-based", "conditions": "100% = no change, <100% = inhibition", "method_in_brief": "as §1"}, "α4β2": {"target": "T3, α4β2 (Homo sapiens, UniProt P17787+P43681)", "T3 construct": "host or cells: HEK293 or CHO", "assay": "Ion channel panel (IonWorks Barracuda): α4β2", "format": "cell-based", "conditions": "100% = no change, <100% = inhibition", "method_in_brief": "as §1"}, "Cav2.1": {"target": "T4, Cav2.1 (Homo sapiens, UniProt O00555)", "T4 construct": "host or cells: HEK293 or CHO", "assay": "cell-based", "conditions": "100% = no change, <100% = inhibition", "method_in_brief": "as §1"}, "Cav2.2": {"target": "T5, Cav2.2 (Homo sapiens, UniProt Q00975)", "T5 construct": "host or cells: HEK293 or CHO", "assay": "cell-based", "conditions": "100% = no change, <100% = inhibition", "method_in_brief": "as §1"}, "Kv2.1": {"target": "T6, Kv2.1 (Homo sapiens, UniProt Q14721)", "T6 construct": "host or cells: HEK293 or CHO", "assay": "cell-based", "conditions": "100% = no change, <100% = inhibition", "method_in_brief": "as §1"}, "GABA": {"test_system": "GABA", "assay": "Ion channel panel (IonWorks Barracuda): GABA", "format": "cell-based", "conditions": "100% = no change, <100% = inhibition", "method_in_brief": "as §1"}, "Nav1.5": {"target": "Nav1.5 (Homo sapiens, UniProt Q14524)", "sequence (Q14524 whole entry)": "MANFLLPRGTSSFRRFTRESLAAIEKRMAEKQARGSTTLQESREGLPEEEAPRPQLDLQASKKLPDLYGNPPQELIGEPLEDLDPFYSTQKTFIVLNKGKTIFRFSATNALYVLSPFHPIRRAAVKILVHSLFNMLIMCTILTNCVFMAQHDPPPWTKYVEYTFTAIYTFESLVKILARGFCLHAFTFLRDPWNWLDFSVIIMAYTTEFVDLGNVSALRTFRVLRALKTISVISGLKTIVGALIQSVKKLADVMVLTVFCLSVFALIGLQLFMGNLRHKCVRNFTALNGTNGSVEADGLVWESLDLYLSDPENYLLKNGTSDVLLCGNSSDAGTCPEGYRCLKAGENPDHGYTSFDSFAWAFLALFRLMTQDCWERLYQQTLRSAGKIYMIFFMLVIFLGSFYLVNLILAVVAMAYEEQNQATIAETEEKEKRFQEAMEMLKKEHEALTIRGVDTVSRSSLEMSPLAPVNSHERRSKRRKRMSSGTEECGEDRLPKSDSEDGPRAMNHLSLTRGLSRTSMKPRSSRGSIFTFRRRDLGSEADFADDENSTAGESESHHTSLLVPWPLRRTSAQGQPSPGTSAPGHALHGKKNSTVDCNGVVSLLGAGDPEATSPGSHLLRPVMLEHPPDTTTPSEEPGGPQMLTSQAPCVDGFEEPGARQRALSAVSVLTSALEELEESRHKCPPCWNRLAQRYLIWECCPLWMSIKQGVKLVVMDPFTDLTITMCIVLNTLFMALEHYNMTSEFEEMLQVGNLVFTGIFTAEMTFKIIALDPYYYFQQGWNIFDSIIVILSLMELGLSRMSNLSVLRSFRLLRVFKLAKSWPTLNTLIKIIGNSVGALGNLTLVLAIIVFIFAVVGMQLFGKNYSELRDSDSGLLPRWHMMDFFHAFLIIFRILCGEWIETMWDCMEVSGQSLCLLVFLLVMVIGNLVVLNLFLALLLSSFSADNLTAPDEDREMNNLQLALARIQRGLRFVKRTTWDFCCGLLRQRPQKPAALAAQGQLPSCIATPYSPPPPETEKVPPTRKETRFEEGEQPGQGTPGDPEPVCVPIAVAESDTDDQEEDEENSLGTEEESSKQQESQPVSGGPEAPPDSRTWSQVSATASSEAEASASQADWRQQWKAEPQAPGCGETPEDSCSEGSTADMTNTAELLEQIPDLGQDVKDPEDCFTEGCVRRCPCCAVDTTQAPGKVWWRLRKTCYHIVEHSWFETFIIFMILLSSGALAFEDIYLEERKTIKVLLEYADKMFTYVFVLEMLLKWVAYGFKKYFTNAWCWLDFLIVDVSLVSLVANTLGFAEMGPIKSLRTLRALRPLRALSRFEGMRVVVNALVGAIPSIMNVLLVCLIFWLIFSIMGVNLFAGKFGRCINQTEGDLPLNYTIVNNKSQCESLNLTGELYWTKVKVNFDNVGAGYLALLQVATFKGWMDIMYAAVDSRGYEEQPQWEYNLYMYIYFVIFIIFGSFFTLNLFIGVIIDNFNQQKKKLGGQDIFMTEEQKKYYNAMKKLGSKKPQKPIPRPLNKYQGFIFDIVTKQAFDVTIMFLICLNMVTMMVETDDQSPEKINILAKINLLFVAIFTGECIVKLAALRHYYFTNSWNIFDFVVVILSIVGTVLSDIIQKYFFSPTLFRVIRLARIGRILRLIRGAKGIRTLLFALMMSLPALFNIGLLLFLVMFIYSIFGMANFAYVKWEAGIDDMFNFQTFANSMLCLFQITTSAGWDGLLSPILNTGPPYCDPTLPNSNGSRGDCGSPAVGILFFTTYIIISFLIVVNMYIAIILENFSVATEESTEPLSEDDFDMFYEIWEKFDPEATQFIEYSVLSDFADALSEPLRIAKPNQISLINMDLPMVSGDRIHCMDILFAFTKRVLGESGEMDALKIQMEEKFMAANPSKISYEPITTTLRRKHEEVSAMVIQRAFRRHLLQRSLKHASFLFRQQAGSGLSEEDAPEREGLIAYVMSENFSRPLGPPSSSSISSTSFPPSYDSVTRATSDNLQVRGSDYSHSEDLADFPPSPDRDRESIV", "assay": "in vitro", "conditions": "100% = no change; for Activity of Nav1.5 with peptide, expressed as a percentage of the reference compound: peptide at 0.2 μM; for Activity of Nav1.5 with peptide (percentage of the reference compound): peptide at 20 μM", "method_in_brief": "as §1"}, "hERG": {"target": "hERG (Homo sapiens, UniProt Q12809)", "assay": "in vitro", "conditions": "100% = no change, <100% = inhibition", "method_in_brief": "as §1"}, "Kir2.1": {"target": "T7, Kir2.1 (Homo sapiens, UniProt P63252)", "T7 construct": "host or cells: HEK293 or CHO", "assay": "Ion channel panel (IonWorks Barracuda): Kir2.1", "format": "cell-based", "conditions": "100% = no change, <100% = inhibition", "method_in_brief": "as §1"}, "Kv1.1": {"target": "T8, Kv1.1 (Homo sapiens, UniProt Q09470)", "T8 construct": "host or cells: HEK293 or CHO", "assay": "cell-based", "format": "cell-based", "conditions": "100% = no change, <100% = inhibition", "method_in_brief": "as §1"}, "Kv1.2": {"target": "T9, Kv1.2 (Homo sapiens, UniProt P16389)", "T9 construct": "host or cells: HEK293 or CHO", "assay": "cell-based", "format": "cell-based", "conditions": "100% = no change, <100% = inhibition", "method_in_brief": "as §1"}, "Kv1.3": {"target": "T10, Kv1.3 (Homo sapiens, UniProt P22001)", "T10 construct": "host or cells: HEK293 or CHO", "assay": "cell-based", "format": "cell-based", "conditions": "100% = no change, <100% = inhibition", "method_in_brief": "as §1"}, "Nav1.7": {"target": "T11, Nav1.7 (Homo sapiens, UniProt Q15858)", "T11 construct": "host or cells: HEK293 or CHO", "T11 sequence (Q15858 whole entry)": "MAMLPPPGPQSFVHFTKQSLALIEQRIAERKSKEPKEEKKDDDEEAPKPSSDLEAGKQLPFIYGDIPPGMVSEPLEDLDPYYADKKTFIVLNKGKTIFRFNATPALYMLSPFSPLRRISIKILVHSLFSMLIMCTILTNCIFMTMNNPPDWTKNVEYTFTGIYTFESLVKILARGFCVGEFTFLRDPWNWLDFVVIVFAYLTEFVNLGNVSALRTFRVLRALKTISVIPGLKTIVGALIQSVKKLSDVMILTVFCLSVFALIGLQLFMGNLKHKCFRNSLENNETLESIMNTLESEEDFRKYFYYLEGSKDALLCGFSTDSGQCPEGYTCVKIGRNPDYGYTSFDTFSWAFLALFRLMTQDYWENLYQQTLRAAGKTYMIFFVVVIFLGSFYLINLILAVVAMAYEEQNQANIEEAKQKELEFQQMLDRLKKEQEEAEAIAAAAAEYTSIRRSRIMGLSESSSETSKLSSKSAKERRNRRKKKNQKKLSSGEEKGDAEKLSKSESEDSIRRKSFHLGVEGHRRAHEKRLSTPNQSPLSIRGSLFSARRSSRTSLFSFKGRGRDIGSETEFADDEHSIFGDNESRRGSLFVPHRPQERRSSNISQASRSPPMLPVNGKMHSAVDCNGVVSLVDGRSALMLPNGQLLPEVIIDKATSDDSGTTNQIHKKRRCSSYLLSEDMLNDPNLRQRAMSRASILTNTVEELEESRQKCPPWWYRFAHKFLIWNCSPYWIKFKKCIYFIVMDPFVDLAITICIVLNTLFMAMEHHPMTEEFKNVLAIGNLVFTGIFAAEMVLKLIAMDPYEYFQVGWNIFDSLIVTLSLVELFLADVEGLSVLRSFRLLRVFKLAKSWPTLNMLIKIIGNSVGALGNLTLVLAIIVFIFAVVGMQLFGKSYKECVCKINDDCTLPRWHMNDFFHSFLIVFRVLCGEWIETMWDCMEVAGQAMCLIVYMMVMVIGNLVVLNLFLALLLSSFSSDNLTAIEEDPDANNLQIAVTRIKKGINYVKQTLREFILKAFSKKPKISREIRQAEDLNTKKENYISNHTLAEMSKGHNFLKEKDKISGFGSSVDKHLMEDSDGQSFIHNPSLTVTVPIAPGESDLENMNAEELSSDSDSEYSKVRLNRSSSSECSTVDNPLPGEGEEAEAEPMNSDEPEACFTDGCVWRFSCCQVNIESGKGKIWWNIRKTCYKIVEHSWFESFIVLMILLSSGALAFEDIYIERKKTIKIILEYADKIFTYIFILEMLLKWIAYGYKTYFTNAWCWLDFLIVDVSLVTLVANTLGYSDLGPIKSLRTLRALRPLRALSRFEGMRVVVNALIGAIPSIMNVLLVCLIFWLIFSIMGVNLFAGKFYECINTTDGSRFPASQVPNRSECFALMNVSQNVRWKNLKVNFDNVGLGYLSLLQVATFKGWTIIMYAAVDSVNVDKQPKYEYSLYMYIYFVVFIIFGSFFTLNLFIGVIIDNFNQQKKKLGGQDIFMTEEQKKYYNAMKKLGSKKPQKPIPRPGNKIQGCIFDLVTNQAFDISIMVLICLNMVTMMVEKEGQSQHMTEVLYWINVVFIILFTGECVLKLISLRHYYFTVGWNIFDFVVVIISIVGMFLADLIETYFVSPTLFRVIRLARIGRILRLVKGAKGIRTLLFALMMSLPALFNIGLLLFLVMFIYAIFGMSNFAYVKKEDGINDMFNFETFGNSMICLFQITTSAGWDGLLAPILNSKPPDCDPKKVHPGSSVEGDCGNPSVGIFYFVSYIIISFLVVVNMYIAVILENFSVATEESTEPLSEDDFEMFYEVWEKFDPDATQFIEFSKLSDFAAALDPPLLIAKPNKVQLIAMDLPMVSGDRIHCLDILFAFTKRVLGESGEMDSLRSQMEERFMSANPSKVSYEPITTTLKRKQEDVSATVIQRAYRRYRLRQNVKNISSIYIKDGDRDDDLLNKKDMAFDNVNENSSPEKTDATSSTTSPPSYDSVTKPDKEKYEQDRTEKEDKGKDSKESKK", "assay": "cell-based", "format": "cell-based", "conditions": "100% = no change; for Activity of Nav1.7 with peptide, expressed as a percentage of the reference compound: peptide at 0.2 μM; for Activity of Nav1.7 with peptide (percentage of the reference compound): peptide at 20 μM"}, "NR2A": {"target": "T12, NR2A (Homo sapiens, UniProt Q12879)", "T12 construct": "host or cells: HEK293 or CHO", "assay": "Ion channel panel (IonWorks Barracuda): NR2A", "format": "cell-based", "conditions": "100% = no change, <100% = inhibition", "method_in_brief": "as §1"}, "NR2B": {"target": "T13, NR2B (Homo sapiens, UniProt Q13224)", "T13 construct": "host or cells: HEK293 or CHO", "assay": "Ion channel panel (IonWorks Barracuda): NR2B", "format": "cell-based", "conditions": "100% = no change, <100% = inhibition", "method_in_brief": "as §1"}, "TRPA1": {"target": "T14, TRPA1 (Homo sapiens, UniProt O75762)", "T14 construct": "host or cells: HEK293 or CHO", "assay": "Ion channel panel (IonWorks Barracuda): TRPA1", "format": "cell-based", "conditions": "100% = no change, <100% = inhibition", "method_in_brief": "as §1"}, "TRPV1": {"target": "T15, TRPV1 (Homo sapiens, UniProt Q8NER1)", "T15 construct": "host or cells: HEK293 or CHO", "assay": "Ion channel panel (IonWorks Barracuda): TRPV1", "format": "cell-based", "conditions": "100% = no change, <100% = inhibition", "method_in_brief": "as §1"}, "[1]": {"conditions": "first of two Nav1.5 columns (probably TP1)"}, "[2]": {"conditions": "second of two Nav1.5 columns (probably TP2)"}, "[3]": {"conditions": "first of two Nav1.7 columns (probably TP1)"}, "[4]": {"conditions": "second of two Nav1.7 columns (probably TP2)"}}}
{"substance": "39 (GSGVPTDVKCRGSPQCIQPCKDAGMRFGKCMNGKCHCTPK) [compound 39]", "values": [{"measurement": "Activity of 5HT3a with peptide (percentage of the reference compound)", "setting": "5HT3a", "value": 55, "unit": "%"}, {"measurement": "Activity of 5HT3a with peptide, expressed as a percentage of the reference compound", "setting": "5HT3a", "value": 67, "unit": "%"}, {"measurement": "Activity of a3b4 with peptide, expressed as a percentage of the reference compound", "setting": "α3β4; peptide at 0.2 μM", "value": 99, "unit": "%"}, {"measurement": "Activity of a3b4 with peptide (percentage of the reference compound)", "setting": "α3β4; peptide at 20 μM", "value": 93, "unit": "%"}, {"measurement": "Activity of a4b2 with peptide, expressed as a percentage of the reference compound", "setting": "α4β2; peptide at 0.2 μM", "value": 98, "unit": "%"}, {"measurement": "Activity of a4b2 with peptide (percentage of the reference compound)", "setting": "α4β2; peptide at 20 μM", "value": 91, "unit": "%"}, {"measurement": "Activity of Cav2.1 with peptide, expressed as a percentage of the reference compound", "setting": "Cav2.1; peptide at 0.2 μM", "value": 96, "unit": "%"}, {"measurement": "Activity of Cav2.1 with peptide (percentage of the reference compound)", "setting": "Cav2.1; peptide at 20 μM", "value": 96, "unit": "%"}, {"measurement": "Activity of Cav2.2 with peptide, expressed as a percentage of the reference compound", "setting": "Cav2.2; peptide at 0.2 μM", "value": 117, "unit": "%"}, {"measurement": "Activity of Cav2.2 with peptide (percentage of the reference compound)", "setting": "Cav2.2; peptide at 20 μM", "value": 98, "unit": "%"}, {"measurement": "Activity of Kv2.1 with peptide, expressed as a percentage of the reference compound", "setting": "Kv2.1; peptide at 0.2 μM", "value": 118, "unit": "%"}, {"measurement": "Activity of Kv2.1 with peptide (percentage of the reference compound)", "setting": "Kv2.1; peptide at 20 μM", "value": 102, "unit": "%"}, {"measurement": "Activity of GABA with peptide, expressed as a percentage of the reference compound", "setting": "GABA; peptide at 0.2 μM", "value": 111, "unit": "%"}, {"measurement": "Activity of GABA with peptide (percentage of the reference compound)", "setting": "GABA; peptide at 20 μM", "value": 108, "unit": "%"}, {"measurement": "Activity of Nav1.5 with peptide, expressed as a percentage of the reference compound", "setting": "Nav1.5; [1]", "value": 108, "unit": "%"}, {"measurement": "Activity of Nav1.5 with peptide, expressed as a percentage of the reference compound", "setting": "Nav1.5; [2]", "value": 105, "unit": "%"}, {"measurement": "Activity of Nav1.5 with peptide (percentage of the reference compound)", "setting": "Nav1.5; [1]", "value": 111, "unit": "%"}, {"measurement": "Activity of Nav1.5 with peptide (percentage of the reference compound)", "setting": "Nav1.5; [2]", "value": 114, "unit": "%"}, {"measurement": "Activity of hERG with peptide, expressed as a percentage of the reference compound", "setting": "hERG; peptide at 0.2 μM", "value": 103, "unit": "%"}, {"measurement": "Activity of hERG with peptide (percentage of the reference compound)", "setting": "hERG; peptide at 20 μM", "value": 84, "unit": "%"}, {"measurement": "Activity of Kir2.1 with peptide, expressed as a percentage of the reference compound", "setting": "Kir2.1; peptide at 0.2 μM", "value": 110, "unit": "%"}, {"measurement": "Activity of Kir2.1 with peptide (percentage of the reference compound)", "setting": "Kir2.1; peptide at 20 μM", "value": 98, "unit": "%"}, {"measurement": "Activity of Kv1.1 with peptide, expressed as a percentage of the reference compound", "setting": "Kv1.1; peptide at 0.2 μM", "value": 37, "unit": "%"}, {"measurement": "Activity of Kv1.1 with peptide (percentage of the reference compound)", "setting": "Kv1.1; peptide at 20 μM", "value": 21, "unit": "%"}, {"measurement": "Activity of Kv1.2 with peptide, expressed as a percentage of the reference compound", "setting": "Kv1.2; peptide at 0.2 μM", "value": 96, "unit": "%"}, {"measurement": "Activity of Kv1.2 with peptide (percentage of the reference compound)", "setting": "Kv1.2; peptide at 20 μM", "value": 84, "unit": "%"}, {"measurement": "Activity of Kv1.3 with peptide, expressed as a percentage of the reference compound", "setting": "Kv1.3; peptide at 0.2 μM", "value": 7, "unit": "%"}, {"measurement": "Activity of Kv1.3 with peptide (percentage of the reference compound)", "setting": "Kv1.3; peptide at 20 μM", "value": 1, "unit": "%"}, {"measurement": "Activity of Nav1.7 with peptide, expressed as a percentage of the reference compound", "setting": "Nav1.7; [3]", "value": 42, "unit": "%"}, {"measurement": "Activity of Nav1.7 with peptide, expressed as a percentage of the reference compound", "setting": "Nav1.7; [4]", "value": 39, "unit": "%"}, {"measurement": "Activity of Nav1.7 with peptide (percentage of the reference compound)", "setting": "Nav1.7; [3]", "value": 108, "unit": "%"}, {"measurement": "Activity of Nav1.7 with peptide (percentage of the reference compound)", "setting": "Nav1.7; [4]", "value": 110, "unit": "%"}, {"measurement": "Activity of NR2A with peptide, expressed as a percentage of the reference compound", "setting": "NR2A; peptide at 0.2 μM", "value": 106, "unit": "%"}, {"measurement": "Activity of NR2A with peptide (percentage of the reference compound)", "setting": "NR2A; peptide at 20 μM", "value": 82, "unit": "%"}, {"measurement": "Activity of NR2B with peptide, expressed as a percentage of the reference compound", "setting": "NR2B; peptide at 0.2 μM", "value": 102, "unit": "%"}, {"measurement": "Activity of NR2B with peptide (percentage of the reference compound)", "setting": "NR2B; peptide at 20 μM", "value": 85, "unit": "%"}, {"measurement": "Activity of TRPA1 with peptide, expressed as a percentage of the reference compound", "setting": "TRPA1; peptide at 0.2 μM", "value": 136, "unit": "%"}, {"measurement": "Activity of TRPA1 with peptide (percentage of the reference compound)", "setting": "TRPA1; peptide at 20 μM", "value": 92, "unit": "%"}, {"measurement": "Activity of TRPV1 with peptide, expressed as a percentage of the reference compound", "setting": "TRPV1; peptide at 0.2 μM", "value": 95, "unit": "%"}, {"measurement": "Activity of TRPV1 with peptide (percentage of the reference compound)", "setting": "TRPV1; peptide at 20 μM", "value": 83, "unit": "%"}]}
